In the supplement of paper PMC9876800:

Tested on: peptide library, one residue held at a place counted from the S/T acceptor
Assay: relative phosphorylation of the sub-library (ratio to the mean residue at this position); human; higher = residue favoured
In short: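 In 384-well plates, purified recombinant kinases (human or orthologue constructs) were incubated for 90 min under kinase-specific conditions with 50 μM biotinylated degenerate peptide sub-libraries and 50 μM ATP spiked with γ-32P-ATP. Each sub-library fixed a single residue at one position around a central Ser/Thr. Relative sub-library phosphorylation, measured by phosphorimaging and densitometry of streptavidin membrane spots, is given as a ratio to the mean residue at that position.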

Sequence of CSNK1A1L, construct: Full length (Q8N752 whole entry, looked up): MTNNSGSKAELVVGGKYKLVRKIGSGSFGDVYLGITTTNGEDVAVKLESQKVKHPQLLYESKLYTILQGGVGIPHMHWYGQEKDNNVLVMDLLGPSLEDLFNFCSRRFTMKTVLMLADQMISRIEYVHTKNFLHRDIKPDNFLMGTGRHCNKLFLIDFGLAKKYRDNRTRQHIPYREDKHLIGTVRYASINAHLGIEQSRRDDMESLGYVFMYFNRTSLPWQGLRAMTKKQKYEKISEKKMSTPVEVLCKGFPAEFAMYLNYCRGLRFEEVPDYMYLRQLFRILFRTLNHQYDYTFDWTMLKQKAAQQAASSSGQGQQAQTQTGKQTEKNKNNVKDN

MKNK1, construct: Full length (D165-205) (from UniProt Q9BUB5)
relative phosphorylation
Conditions	at +1	at +2	at +3	at +4	at -1	at -2	at -3	at -4	at -5
A fixed	0.571	0.643	0.663	0.758	0.958	0.862	0.744	0.882	1.25
D fixed	0.289	0.373	0.434	0.925	0.355	0.324	0.281	0.361	0.43
E fixed	0.603	0.351	0.429	0.903	0.342	0.279	0.315	0.37	0.404
F fixed	1.41	0.677	0.771	0.706	0.395	0.433	0.392	0.676	0.727
G fixed	0.464	0.534	1.49	0.967	1.12	0.736	1.22	1.3	0.945
H fixed	0.892	1.83	1.23	1.13	0.897	0.748	1.04	1.12	0.866
I fixed	1.05	0.875	0.597	0.687	0.304	0.372	0.286	0.625	1
K fixed	1.04	1.03	2.18	1.82	3.23	2.45	3.62	2.16	1.58
L fixed	0.991	0.907	1.01	0.722	0.602	0.519	0.394	0.751	1.2
M fixed	1.86	0.997	0.886	0.805	0.619	0.395	0.494	0.784	0.97
N fixed	0.651	0.817	0.725	1.12	0.905	1.03	0.96	1.07	0.872
P fixed	0.345	0.387	0.806	1.3	1.87	0.55	1.4	1.28	1.25
Q fixed	1.8	0.794	0.856	1.29	0.991	0.747	0.926	0.83	0.762
R fixed	1.34	1.9	1.95	1.49	2.91	5.62	3.5	2.25	1.66
V fixed	0.995	0.781	0.506	0.704	0.429	0.521	0.318	0.76	1.25
W fixed	1.2	1.79	1.17	0.826	0.414	0.685	0.549	0.894	0.832
Y fixed	1.49	2.32	1.3	0.845	0.655	0.725	0.557	0.891	1.01
pThr fixed	0.668	0.629	0.564	1.11	0.278	0.387	0.511	0.639	0.677
pTyr fixed	0.868	1.32	0.756	1.46	0.294	0.373	0.447	0.596	0.942

CSNK1A1L, construct: Full length (from UniProt Q8N752)
relative phosphorylation
Conditions	at +1	at +2	at +3	at +4	at -1	at -2	at -3	at -4	at -5
A fixed	0.971	1.06	1.06	1.04	1.09	1.69	0.946	0.941	0.921
D fixed	0.691	0.714	0.868	0.854	0.749	0.716	1.06	0.888	0.771
E fixed	0.871	0.578	0.9	0.871	0.977	0.991	2.26	1.1	0.78
F fixed	0.886	1.12	1.17	1.05	0.872	0.81	0.784	0.965	1.27
G fixed	0.849	0.885	1.07	0.992	1.21	0.819	0.778	0.948	0.897
H fixed	0.744	0.98	0.899	0.858	0.896	0.748	0.734	0.933	0.985
I fixed	1.87	1.66	1.19	1.03	0.879	0.847	0.965	1.13	1.1
K fixed	0.883	1.02	0.845	1.09	1.2	1.35	1.13	1.24	1.27
L fixed	1.19	0.964	1.07	1.11	1.01	0.903	0.811	1.08	1.09
M fixed	1.03	1.02	1.17	1.08	1.13	0.839	0.751	0.96	1.09
N fixed	0.745	0.702	0.795	0.777	0.997	0.798	0.704	0.96	0.874
P fixed	0.719	0.705	0.904	1.1	1.02	1.19	0.741	0.873	0.874
Q fixed	0.801	0.731	0.808	0.913	0.878	0.889	0.685	0.865	0.807
R fixed	1.25	1.03	0.801	0.897	1.54	2.1	2.08	1.15	1.18
V fixed	1.88	1.38	1.14	1.02	0.854	0.889	0.813	0.956	0.925
W fixed	0.769	1.06	1.16	1.24	0.754	0.681	0.656	0.946	0.928
Y fixed	0.854	1.4	1.15	1.07	0.94	0.737	1.09	1.08	1.25
pThr fixed	1.69	0.803	1.25	1.64	2.06	3.58	53.8	5.13	1.56
pTyr fixed	1.26	2.63	3.97	2.06	1.5	1.78	2.99	4.32	1.93
